Source: patent publication US20230338465A1 (VITRUVIAE, published 2023)
Where “and” joins values, the source holds several entries; their conditions need not be identical. Equal values may be shown once. Read-outs that look alike come from different tables or passages of the source.

Experiments:
Assay in all cases: ELISA, 2.5 mM CaCl2
[1] = target: Chikungunya Virus E1 (Chikungunya virus)
[2] = target: T1, Zika Virus Envelope Protein (Zika virus)
T1 chain: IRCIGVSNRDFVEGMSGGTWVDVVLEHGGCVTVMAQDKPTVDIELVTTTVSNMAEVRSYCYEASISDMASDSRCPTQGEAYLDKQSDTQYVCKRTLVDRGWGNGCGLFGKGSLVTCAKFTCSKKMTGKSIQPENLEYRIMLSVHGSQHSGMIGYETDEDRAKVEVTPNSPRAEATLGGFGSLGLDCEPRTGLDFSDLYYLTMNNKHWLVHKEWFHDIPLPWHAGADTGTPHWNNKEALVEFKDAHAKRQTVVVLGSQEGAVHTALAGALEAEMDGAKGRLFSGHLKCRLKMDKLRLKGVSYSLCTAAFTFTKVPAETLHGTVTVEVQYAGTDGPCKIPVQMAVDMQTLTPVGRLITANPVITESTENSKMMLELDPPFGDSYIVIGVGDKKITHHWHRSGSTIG

[3] = target: T1, Zika Virus Envelope Protein

B1: VP025-CT (co-transfected product of genes TM-G4-A-DC and CT-G4-B-DC, heterodimer mixture) (Fc fusion)
chain 1: SVKVGGEAGPSVTLPCHYSGAVTSMCWNRGSCSLFTCQNGIVWTNGTHVTYRKDTRYKLLGDLSRRDVSLTIENTAVSDSGVYCCRVEHRGWFNDMKITVSLEIVGGGGSGGGGSGGGGSKYGPPCPPCPAPEAAGGPSVFLFPPKPKDTLMISRTPEVTCVVVDVSQEDPEVQFNWYVDGVEVHNAKTKPREEQFNSTYRVVSVLTVLHQDWLNGKEYKCAVSNKGLPSSIEKTISKCKGQPREPQVYTLPPSQEEMTKNQVSLTCLVKGFYPSDIAVEWESNGQPENNYKTTPPVLDSDGSFFLYSRLTVDKSRWQEGNVFSCSVMHEALHNHYTQKSLSLSLGK
chain 2: ERLCHPCPWEWTFFQGNCYFMSNSQRNWHDSITACKEVGAQLVVIKSAEEQNFLQLQSSRSNRFTWMGLSDLNQEGTWQWVDGSPLLPSFKQYWNRGEPNNVGEEDCAEFSGNGWNDDKCNLAKFWICKKSAASCSGGGGSGGGGSGGGGSKYGPPCPPCPAPEAAGGPSVFLFPPKPKDTLMISRTPEVTCVVVDVSQEDPEVQFNWYVDGVEVHNAKTKPREEQFNSTYRVVSVLTVLHQDWLNGKEYKCAVSNKGLPSSIEKTISKCKGQPREPQVYTLPPSQEEMTKNQVSLTCLVKGFYPSDIAVEWESNGQPENNYKTTPPVLDSDGSFLLYSKLTVDKSRWQEGNVFSCSVMHEALHNHYTQKSLSLSLGK
notes: also called VP025-CT (heterodimer mixture)
For B1, the EC50 [1] was 10.2 µg/mL and 122 nM.

B2: VP019-F2 (multimer fraction F2 of VP019, V-TIM1-1 with V-IGG4-ADC-A-Fc) (Fc fusion)
chain: SVKVGGEAGPSVTLPCHYSGAVTSMCWNRGSCSLFTCQNGIVWTNGTHVTYRKDTRYKLLGDLSRRDVSLTIENTAVSDSGVYCCRVEHRGWFNDMKITVSLEIVGGGGSGGGGSGGGGSKYGPPCPPCPAPEAAGGPSVFLFPPKPKDTLMISRTPEVTCVVVDVSQEDPEVQFNWYVDGVEVHNAKTKPREEQFNSTYRVVSVLTVLHQDWLNGKEYKCAVSNKGLPSSIEKTISKCKGQPREPQVYTLPPSQEEMTKNQVSLTCLVKGFYPSDIAVEWESNGQPENNYKTTPPVLDSDGSFFLYSRLTVDKSRWQEGNVFSCSVMHEALHNHYTQKSLSLSLGK
notes: also called TM-G4-A-DC; VIT-307
Binder B2 has an EC50 [2] of 12.2 nM and an EC50 [3] of 1 µg/mL.

B3: VP020 (V-CTLD-1 with V-IGG4-ADC-B-Fc) (Fc fusion)
chain: ERLCHPCPWEWTFFQGNCYFMSNSQRNWHDSITACKEVGAQLVVIKSAEEQNFLQLQSSRSNRFTWMGLSDLNQEGTWQWVDGSPLLPSFKQYWNRGEPNNVGEEDCAEFSGNGWNDDKCNLAKFWICKKSAASCSGGGGSGGGGSGGGGSKYGPPCPPCPAPEAAGGPSVFLFPPKPKDTLMISRTPEVTCVVVDVSQEDPEVQFNWYVDGVEVHNAKTKPREEQFNSTYRVVSVLTVLHQDWLNGKEYKCAVSNKGLPSSIEKTISKCKGQPREPQVYTLPPSQEEMTKNQVSLTCLVKGFYPSDIAVEWESNGQPENNYKTTPPVLDSDGSFLLYSKLTVDKSRWQEGNVFSCSVMHEALHNHYTQKSLSLSLGK
notes: also called CT-G4-B-DC; VIT-308
With B3 the EC50 [2] was 85.1 nM and the EC50 [3] was 7.4 µg/mL.
